Test results as given in patent US10800847.
One block for each substance: values may come before it.

What was measured:
HLA-B*0702 (B7) (human) [1] = assay: Luminex regular beads (#7), IVIg diluted 1:8
HLA-B*0801 (B8) (human) [2] = assay: Luminex regular beads (#7), IVIg diluted 1:8
HLA-B*1301 (B13) (human) [3] = assay: Luminex regular beads (#7), IVIg diluted 1:8
HLA-B*1302 (B13) (human) [4] = assay: Luminex regular beads (#7), IVIg diluted 1:8
HLA-B*1401 (B64) (human) [5] = assay: Luminex regular beads (#7), IVIg diluted 1:8
HLA-B*1402 (B65) (human) [6] = assay: Luminex regular beads (#7), IVIg diluted 1:8
HLA-B*1502 (B75) (human) [7] = assay: Luminex regular beads (#7), IVIg diluted 1:8
HLA-B*1503 (B72) (human) [8] = assay: Luminex regular beads (#7), IVIg diluted 1:8
HLA-B*1510 (B71) (human) [9] = assay: Luminex regular beads (#7), IVIg diluted 1:8
HLA-B*1511 (B75) (human) [10] = assay: Luminex regular beads (#7), IVIg diluted 1:8
HLA-B*1512 (B76) (human) [11] = assay: Luminex regular beads (#7), IVIg diluted 1:8
HLA-B*1513 (B77) (human) [12] = assay: Luminex regular beads (#7), IVIg diluted 1:8
HLA-B*1516 (B63) (human) = assay: Luminex regular beads (#7), IVIg diluted 1:8
HLA-B*1801 (B18) (human) [13] = assay: Luminex regular beads (#7), IVIg diluted 1:8
[14] = molecular target: Serum albumin on negative control beads (HSA/BSA) (human or bovine); assay: Luminex regular beads (#7), IVIg diluted 1:8
[15] = molecular target: HLA-A*2902 (A29) single antigen on beads (human); assay: Luminex single-antigen regular beads (#7), IVIg 1:8
[16] = molecular target: HLA-A*3001 (A30) single antigen on beads (human); assay: as above
[17] = molecular target: HLA-A*3002 (A30) single antigen on beads (human); assay: as above
[18] = molecular target: HLA-A*3101 (A31) single antigen on beads (human); assay: as above
[19] = molecular target: HLA-A*3201 (A32) single antigen on beads (human); assay: as above
[20] = molecular target: HLA-A*3301 (A33) single antigen on beads (human); assay: as above
[21] = molecular target: HLA-A*3303 (A33) single antigen on beads (human); assay: as above
[22] = molecular target: HLA-A*3401 (A34) single antigen on beads (human); assay: as above
[23] = molecular target: HLA-A*3402 (A34) single antigen on beads (human); assay: as above
[24] = molecular target: HLA-A*3601 (A36) single antigen on beads (human); assay: as above
[25] = molecular target: HLA-A*6601 (A66) single antigen on beads (human); assay: as above
[26] = molecular target: HLA-A*6602 (A66) single antigen on beads (human); assay: as above
[27] = molecular target: HLA-A*6801 (A68) single antigen on beads (human); assay: as above
HLA-B*0702 (B7) (human) [28] = assay: iBead MFI against regular-bead MFI, IVIg diluted 1:8
HLA-B*0801 (B8) (human) [29] = assay: as above
HLA-B*1301 (B13) (human) [30] = assay: as above
HLA-B*1302 (B13) (human) [31] = assay: as above
HLA-B*1401 (B64) (human) [32] = assay: as above
HLA-B*1402 (B65) (human) [33] = assay: as above
HLA-B*1501 (B62) (human) = assay: as above
HLA-B*1502 (B75) (human) [34] = assay: as above
HLA-B*1503 (B72) (human) [35] = assay: as above
HLA-B*1510 (B71) (human) [36] = assay: as above
HLA-B*1511 (B75) (human) [37] = assay: as above
HLA-B*1512 (B76) (human) [38] = assay: as above
HLA-B*1513 (B77) (human) [39] = assay: as above
HLA-B*1801 (B18) (human) [40] = assay: as above
[41] = molecular target: Serum albumin on negative control beads (HSA/BSA) (human or bovine); assay: as above
[42] = molecular target: HLA-A*6901 (A69) single antigen on Luminex beads (human); assay: Luminex single antigen bead assay, iBeads vs regular beads, IVIg 1:8
[43] = molecular target: HLA-A*8001 (A80) single antigen on Luminex beads (human); assay: as above

MFI (HLA-B*0702 (B7) (human) [1]): 714 MFI
MFI (HLA-B*0801 (B8) (human) [2]): 2120 MFI
MFI (HLA-B*1301 (B13) (human) [3]): 3680 MFI
MFI (HLA-B*1302 (B13) (human) [4]): 1940 MFI
MFI (HLA-B*1401 (B64) (human) [5]): 2400 MFI
MFI (HLA-B*1402 (B65) (human) [6]): 1460 MFI
MFI (HLA-B*1502 (B75) (human) [7]): 861 MFI
MFI (HLA-B*1503 (B72) (human) [8]): 1060 MFI
MFI (HLA-B*1510 (B71) (human) [9]): 1290 MFI
MFI (HLA-B*1511 (B75) (human) [10]): 3640 MFI
MFI (HLA-B*1512 (B76) (human) [11]): 1130 MFI
MFI (HLA-B*1513 (B77) (human) [12]): 2260 MFI
MFI (HLA-B*1516 (B63) (human)): 3130 MFI
MFI (HLA-B*1801 (B18) (human) [13]): 246 MFI
MFI [14]: 2340 MFI
MFI [15]: 1580 MFI
MFI [16]: 928 MFI
MFI [17]: 533 MFI
MFI [18]: 366 MFI
MFI [19]: 738 MFI
MFI [20]: 1490 MFI
MFI [21]: 542 MFI
MFI [22]: 2880 MFI
MFI [23]: 0 MFI
MFI [24]: 778 MFI
MFI [25]: 1700 MFI
MFI [26]: 3650 MFI
MFI [27]: 0 MFI
Difference % (iBead vs regular bead) (HLA-B*0702 (B7) (human) [28]): -100%
Difference % (iBead vs regular bead) (HLA-B*0801 (B8) (human) [29]): -95%
Difference % (iBead vs regular bead) (HLA-B*1301 (B13) (human) [30]): -99%
Difference % (iBead vs regular bead) (HLA-B*1302 (B13) (human) [31]): -100%
Difference % (iBead vs regular bead) (HLA-B*1401 (B64) (human) [32]): -96%
Difference % (iBead vs regular bead) (HLA-B*1402 (B65) (human) [33]): -100%
Difference % (iBead vs regular bead) (HLA-B*1501 (B62) (human)): -100%
Difference % (iBead vs regular bead) (HLA-B*1502 (B75) (human) [34]): -100%
Difference % (iBead vs regular bead) (HLA-B*1503 (B72) (human) [35]): -100%
Difference % (iBead vs regular bead) (HLA-B*1510 (B71) (human) [36]): -100%
Difference % (iBead vs regular bead) (HLA-B*1511 (B75) (human) [37]): -70%
Difference % (iBead vs regular bead) (HLA-B*1512 (B76) (human) [38]): 23%
Difference % (iBead vs regular bead) (HLA-B*1513 (B77) (human) [39]): -89%
Difference % (iBead vs regular bead) (HLA-B*1801 (B18) (human) [40]): -100%
Difference % (iBead vs regular bead) [41]: -29%
Difference % (iBead MFI against regular bead MFI) [42]: -53%
Difference % (iBead MFI against regular bead MFI) [43]: -63%
Substance: IVIg Octagam (Octapharma, Lachen, Switzerland) (antibody)

MFI (HLA-B*0702 (B7) (human) [1]): 2220 MFI
MFI (HLA-B*0801 (B8) (human) [2]): 884 MFI
MFI (HLA-B*1301 (B13) (human) [3]): 2240 MFI
MFI (HLA-B*1302 (B13) (human) [4]): 2220 MFI
MFI (HLA-B*1401 (B64) (human) [5]): 1750 MFI
MFI (HLA-B*1402 (B65) (human) [6]): 670 MFI
MFI (HLA-B*1502 (B75) (human) [7]): 526 MFI
MFI (HLA-B*1503 (B72) (human) [8]): 689 MFI
MFI (HLA-B*1510 (B71) (human) [9]): 857 MFI
MFI (HLA-B*1511 (B75) (human) [10]): 2820 MFI
MFI (HLA-B*1512 (B76) (human) [11]): 2660 MFI
MFI (HLA-B*1513 (B77) (human) [12]): 1240 MFI
MFI (HLA-B*1516 (B63) (human)): 3540 MFI
MFI (HLA-B*1801 (B18) (human) [13]): 0 MFI
MFI [14]: 3790 MFI
MFI [15]: 991 MFI
MFI [16]: 924 MFI
MFI [17]: 1050 MFI
MFI [18]: 121 MFI
MFI [19]: 856 MFI
MFI [20]: 1120 MFI
MFI [21]: 322 MFI
MFI [22]: 3040 MFI
MFI [23]: 684 MFI
MFI [24]: 564 MFI
MFI [25]: 1410 MFI
MFI [26]: 2360 MFI
MFI [27]: 192 MFI
Difference % (iBead vs regular bead) (HLA-B*0702 (B7) (human) [28]): -10%
Difference % (iBead vs regular bead) (HLA-B*0801 (B8) (human) [29]): -63%
Difference % (iBead vs regular bead) (HLA-B*1401 (B64) (human) [32]): -85%
Difference % (iBead vs regular bead) (HLA-B*1402 (B65) (human) [33]): -100%
Difference % (iBead vs regular bead) (HLA-B*1501 (B62) (human)): 270%
Difference % (iBead vs regular bead) (HLA-B*1503 (B72) (human) [35]): -100%
Difference % (iBead vs regular bead) (HLA-B*1510 (B71) (human) [36]): -43%
Difference % (iBead vs regular bead) (HLA-B*1511 (B75) (human) [37]): -16%
Difference % (iBead vs regular bead) (HLA-B*1512 (B76) (human) [38]): 125%
Difference % (iBead vs regular bead) (HLA-B*1513 (B77) (human) [39]): -27%
Difference % (iBead vs regular bead) (HLA-B*1801 (B18) (human) [40]): 0%
Difference % (iBead vs regular bead) [41]: 33%
Substance: IVIg GamaSTAN S/D (Talecris Biotherapeutics, USA) (antibody)
